The target in this experiment is horseradish peroxidase-conjugated IgG (Wako Pure Chemical Industries, Ltd.). The experiment is described as follows: protein A immobilized on a platinum microelectrode (-100 mV), incubated with 0.5 mg/ml HRP-conjugated IgG, peroxidase luminescence read by luminometer.

As to polyhistidine-fused protein A, the amount of luminescence was 1.4e+10 cps.
